One molecule from US20120149028A1 (LUDWIG MAXIMILIANS UNIVERSITAT M NCHEN, published 2012) can be followed below.

The target in this experiment is T1, endogenous PCNA (proliferating cell nuclear antigen) in HeLa cells (human (endogenous in HeLa cells), UniProt P12004 1-261).
T1 construct: whole, on cells; Intracellular (nuclear) endogenous protein in living or fixed HeLa cells, not on the surface
The experiment is described as follows: GFP fusion expressed in HeLa cells, epifluorescence microscopy. How it is done:
First, it was investigated, whether transiently expressed PCNA3p16-GFP colocalizes with RFP-PCNA or HcRedLigase, another S phase marker. To do so, HeLa cells were seeded on coverslips and transiently double transfected with expression vectors coding for RFP-PCNA or HcRed-Ligase and vector coding for PCNA-Chromobody PCNA3p16-GFP. 24 h after transfection cells were fixed in 4% PFA for 15 minutes at room temperature, permeabilized with 0,2% Triton-X-100 in PBS and the DNA was counterstained with DAPI. Slides were mounted in VectaShield and further analyzed by epifluorescence microscopy with appropriate filtersets for DAPI (D360_{—}40X/HQ460_{—}40M), GFP (HQ480_{—}40X/HQ535_{—}50M) and red fluorescent proteins (HQ565_{—}30X/HQ620_{—}60M) and an 63X/1.3 NA Plan Apo oil objective. As expected, RFP-PCNA as well as HcRed-Ligase localized to DNA replication sites in the nucleus of the cells. In both cases a colocalization of RFP-PCNA and HcRed-Ligase with the Chromobody PCNA3p16-GFP was detected (FIG. 3 A). […]
To confirm that PCNA3p16-GFP recognizes endogenous PCNA located at active DNA replication sites, an antibody staining against PCNA and a BrdU pulse-chase experiment were performed. […] The primary anti-PCNA antibody (clone 16D10) (1:400) was detected by a secondary antibody coupled to the fluorescent dye Alexa568. […]

T1 sequence (P12004 whole entry): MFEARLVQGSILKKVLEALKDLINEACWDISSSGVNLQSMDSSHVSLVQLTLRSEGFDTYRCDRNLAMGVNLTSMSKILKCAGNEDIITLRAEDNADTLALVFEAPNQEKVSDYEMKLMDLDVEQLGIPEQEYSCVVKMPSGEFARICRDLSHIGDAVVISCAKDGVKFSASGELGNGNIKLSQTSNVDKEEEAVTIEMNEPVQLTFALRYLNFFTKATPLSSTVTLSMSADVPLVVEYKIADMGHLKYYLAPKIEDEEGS

B1: variant PCNA-Chromobody of SEQ ID NO 18 fused to GFP (VHH)
VHH: NVQLNESGGGLVQPGGSLRLSCAASGFTFSSYAMSWVRQAPGKGLEWVSEISPSGAVKAYSDSVKGRFTISRDNAKNRLYLQMNSLTPEDTGEYFCTKVQSPRTRIPAPSSQGTQVTVSS
notes: Expressed in HeLa cells as a GFP fusion; not shown: linker and GFP
Regarding B1, the binding result is reported as “binds”.
